Experimental findings from paper PMC5659314 (Journal of immunology (Baltimore, Md. : 1950), 2017) are described below.

In one assay the target is mouse DR3.Fc (mouse). Put plainly: SPR.
A further assay concerns the target T1, human TL1A (human, UniProt O95150 72-251).
T1 sequence (looked up): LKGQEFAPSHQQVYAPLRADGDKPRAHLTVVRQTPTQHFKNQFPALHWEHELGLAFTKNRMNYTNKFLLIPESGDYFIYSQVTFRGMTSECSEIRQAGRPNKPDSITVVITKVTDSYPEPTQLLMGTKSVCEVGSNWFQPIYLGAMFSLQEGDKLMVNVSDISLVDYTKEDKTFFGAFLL
Put plainly: ELISA.

Assay [1] concerns the target recombinant mouse Galectin-9 (mouse, UniProt O08573 1-353). Put plainly: SPR.
For assay [2], the target named is recombinant human Galectin-9 (human, UniProt O00182 1-355). As to the kind of experiment: SPR.
Chain of recombinant human Galectin-9 (human, UniProt O00182 1-355) (O00182 whole entry): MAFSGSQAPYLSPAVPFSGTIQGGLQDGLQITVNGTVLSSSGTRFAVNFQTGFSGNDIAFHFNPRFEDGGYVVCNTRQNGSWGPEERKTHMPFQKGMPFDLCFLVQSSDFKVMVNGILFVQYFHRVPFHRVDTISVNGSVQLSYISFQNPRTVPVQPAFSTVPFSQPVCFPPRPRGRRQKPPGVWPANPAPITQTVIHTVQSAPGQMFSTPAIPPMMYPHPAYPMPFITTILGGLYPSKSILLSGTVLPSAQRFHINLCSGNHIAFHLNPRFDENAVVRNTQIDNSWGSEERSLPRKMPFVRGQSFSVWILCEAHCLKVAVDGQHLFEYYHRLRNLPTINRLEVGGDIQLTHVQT

Chain of recombinant mouse Galectin-9 (mouse, UniProt O08573 1-353) (O08573 whole entry): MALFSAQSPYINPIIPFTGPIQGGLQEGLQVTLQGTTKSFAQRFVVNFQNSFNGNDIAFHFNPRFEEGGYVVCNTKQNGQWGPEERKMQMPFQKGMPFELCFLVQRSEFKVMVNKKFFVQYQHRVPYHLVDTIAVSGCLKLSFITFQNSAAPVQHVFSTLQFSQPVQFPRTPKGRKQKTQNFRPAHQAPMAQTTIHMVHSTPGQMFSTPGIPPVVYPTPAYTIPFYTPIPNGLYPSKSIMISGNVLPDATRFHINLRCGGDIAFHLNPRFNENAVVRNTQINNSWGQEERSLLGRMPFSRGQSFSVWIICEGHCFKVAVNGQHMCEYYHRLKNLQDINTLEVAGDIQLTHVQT

As to “recombinant human Galectin-9 (from UniProt O00182 1-355) (natural protein)”, the dissociation constant (Kd) with mouse DR3.Fc (mouse) was 180 nM.

The molecule “recombinant mouse Galectin-9 (from UniProt O08573 1-353) (natural protein)” registered a Kd with mouse DR3.Fc (mouse) of 360 nM.

B1: human DR3.Fc (fusion protein containing the extracellular region of human DR3) (Fc fusion, UniProt Q93038 25-199, looked up)
chain: QGGTRSPRCDCAGDFHKKIGLFCCRGCPAGHYLKAPCTEPCGNSTCLVCPQDTFLAWENHHNSECARCQACDEQASQVALENCSAVADTRCGCKPGWFVECQVSQCVSSSPFYCQPCLDCGALHRHTRLLCSRRDTDCGTCLPGFYEHGDGCVSCPTSTLGSCPERCAAVCGWRQ
Consider B1, for which, in the assay with human TL1A, the binding result is “binds”. The Kd was about 440 nM in assay [1] and about 430 nM in assay [2].

B2: de-glycosylated human DR3.Fc (PNGase F treated) (Fc fusion, UniProt Q93038 25-199, looked up)
chain: QGGTRSPRCDCAGDFHKKIGLFCCRGCPAGHYLKAPCTEPCGNSTCLVCPQDTFLAWENHHNSECARCQACDEQASQVALENCSAVADTRCGCKPGWFVECQVSQCVSSSPFYCQPCLDCGALHRHTRLLCSRRDTDCGTCLPGFYEHGDGCVSCPTSTLGSCPERCAAVCGWRQ
modifications: N-linked sugars removed by PNGase F
As to B2, the binding result in the assay with human TL1A is reported as “binds”.
